Data published in PMC2940226 (Neurobiology of disease, 2010).

Target: GABAA receptor γ2 subunit (rat (endogenous in hippocampus), UniProt P18508 39-466)
Test: co-IP

GABAA receptor γ2 subunit, sequence (P18508 39-466): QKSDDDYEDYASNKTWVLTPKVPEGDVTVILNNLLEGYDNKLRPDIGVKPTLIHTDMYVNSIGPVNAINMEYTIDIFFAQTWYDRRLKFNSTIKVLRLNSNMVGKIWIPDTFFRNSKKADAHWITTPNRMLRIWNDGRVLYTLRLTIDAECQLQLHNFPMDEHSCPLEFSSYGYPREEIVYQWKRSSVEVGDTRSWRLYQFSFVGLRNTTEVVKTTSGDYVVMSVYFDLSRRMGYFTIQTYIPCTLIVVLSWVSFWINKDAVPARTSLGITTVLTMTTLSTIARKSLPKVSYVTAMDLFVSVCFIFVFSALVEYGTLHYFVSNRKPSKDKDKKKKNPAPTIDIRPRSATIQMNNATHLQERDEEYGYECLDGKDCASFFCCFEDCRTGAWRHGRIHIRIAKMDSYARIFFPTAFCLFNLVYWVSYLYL

- ratio of the α4-γ2 co-precipitation (normalised α4 to γ2), control animals: 0.55 ± 0.02
- ratio of the α4-γ2 co-precipitation (normalised α4 to γ2), epileptic animals: 1.12 ± 0.24
B1: GABAA receptor α4 subunit (natural protein, rat (endogenous in hippocampus), UniProt P28471 36-552, looked up)
chain: QNSKDEKLCPENFTRILDSLLDGYDNRLRPGFGGPVTEVKTDIYVTSFGPVSDVEMEYTMDVFFRQTWIDKRLKYDGPIEILRLNNMMVTKVWTPDTFFRNGKKSVSHNMTAPNKLFRIMRNGTILYTMRLTISAECPMRLVDFPMDGHACPLKFGSYAYPKSEMIYTWTKGPEKSVEVPKESSSLVQYDLIGQTVSSETIKSITGEYIVMTVYFHLRRKMGYFMIQTYIPCIMTVILSQVSFWINKESVPARTVFGITTVLTMTTLSISARHSLPKVSYATAMDWFIAVCFAFVFSALIEFAAVNYFTNIQMQKAKKKISKPPPEVPAAPVLKEKHTETSLQNTHANLNMRKRTNALVHSESDVNSRTEVGNHSSKTTAAQESSETTPKAHLASSPNPFSRANAAETISAAARGLSSAASPSPHGTLQPAPLRSASARPAFGARLGRIKTTVNTTGVPGNVSATPPPSAPPPSGSGTSKIDKYARILFPVTFGAFNMVYWVVYLSKDTMEKSESLM
